Values quoted from earlier work in publication PMC7134607.

Target: SARS main protease (SARS coronavirus) (UniProt P0C6X7)

Substance: SARS main protease (from UniProt P0C6X7)
- Kd: 100 µM
